According to patent US8772236B2, “Truncated cystine-knot proteins” (Pepscan Systems B.V., priority 2009, dated 2014):
Values joined by “and” are separate entries in the source; they are usually repeats but may differ in a detail not shown here. Equal entries are not always repeated.

Tests used:
[1] = test system: Avastin™; assay: Competition ELISA: inhibition of Avastin-binding to surface-immobilized humVEGF1-165 by peptides
[2] = target: T1, ratVEGF1-165 homodimer (recombinant full-length ratVEGF) (Rattus norvegicus, UniProt P16612); assay: Binding of rat-antisera in ELISA to ratVEGF1-165 homodimer; conditions: coat ratVEGF1-165 homodimer; Avastin
T1 construct: humanVEGF), and D) ratVEGF1-165 homodimer (recombinant full-length ratVEGF); For
T1 sequence (P16612 27-165 isoform P16612-2 limits assumed): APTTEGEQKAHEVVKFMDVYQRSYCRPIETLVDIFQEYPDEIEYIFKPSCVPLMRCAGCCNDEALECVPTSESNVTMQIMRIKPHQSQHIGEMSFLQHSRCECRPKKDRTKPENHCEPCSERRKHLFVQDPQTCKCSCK
Method: Therefore, polystyrene 96-well plates (Greiner, Germany) were treated with 100 μL/well of 0.2% glutaric dialdehyde in phosphate-buffer (0.1 M, pH=5) for four hours at room temperature while shaking, following by washing (3×10 minutes) with phosphate-buffer (0.1 M, pH=8). Then, the wells were coated with 100 μL/well of a 1 μg/mL solution of oxid-humVEGF26-104/humVEGF1-165 in phosphate-buffer (0.1 M, pH=8) for three hours at 37° C., followed by overnight standing at room temperature. After washing with 1% TWEEN®-80 (3×), the plates were incubated with the antibody at various different dilutions in horse serum (4% in PBS/1% TWEEN®-80/3% NaCl), starting with 1/10 dilution in the first well and three-fold dilution steps in subsequent wells. Incubation was performed for one hour at 37° C., followed by washing with 1% TWEEN®-80 (3×). Then, the plates were incubated with 100 μL/well of peroxidase-labeled Goat-anti-rat serum (1/1000 dilution in 4% horse serum, see above) for one hour at 25° C., followed by washing with 1% TWEEN®-80 (4×). […] OD405 nm-values were measured after 45 minutes standing at room temperature in the dark.
(§3) Titers were calculated by determining the serum dilution for which OD405 nm is equal to 4×OD405 nm that of a buffer solution (see “ELISA-binding studies, example 1B”). […]

[3] = target: T2, humVEGF1-165 (Homo sapiens, UniProt P15692); assay: ELISA titer determination of antisera on surface-immobilized humVEGF1-165 after immunization with oxid-humVEGF26-104; format: binding; conditions: female Wistar rats and female Balb/C mice
T2 sequence (P15692 27-191 isoform P15692-4 limits assumed): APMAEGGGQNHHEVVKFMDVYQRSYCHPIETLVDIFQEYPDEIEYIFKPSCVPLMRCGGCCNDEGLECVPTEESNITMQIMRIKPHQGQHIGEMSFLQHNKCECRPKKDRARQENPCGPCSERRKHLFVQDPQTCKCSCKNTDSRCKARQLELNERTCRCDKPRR
Method: Therefore, polystyrene 96-well plates (Greiner, Germany) were treated with 100 μL/well of 0.2% glutaric dialdehyde in phosphate-buffer (0.1 M, pH=5) for four hours at room temperature while shaking, following by washing (3×10 minutes) with phosphate-buffer (0.1 M, pH=8). Then, the wells were coated with 100 μL/well of a 1 μg/mL solution of oxid-humVEGF26-104/humVEGF1-165 in phosphate-buffer (0.1 M, pH=8) for three hours at 37° C., followed by overnight standing at room temperature. After washing with 1% TWEEN®-80 (3×), the plates were incubated with the antibody at various different dilutions in horse serum (4% in PBS/1% TWEEN®-80/3% NaCl), starting with 1/10 dilution in the first well and three-fold dilution steps in subsequent wells. […] OD405 nm-values were measured after 45 minutes standing at room temperature in the dark. […]
Wistar rats: Female Wistar rats were immunized with anti-humVEGF26-104 at day 0 with 400 μL (intramuscular+subcutaneous, 200 μL each) of a 375 μg/mL solution of humVEGF26-104 in PBS/CoVaccine 1:1 (v/v) (PBS=Phosphate-Buffered Saline), followed by a booster (same quantity and concentration) at two and four weeks. […]
as §3

[4] = test system: BaF3 cells (murine pre-B lymphocytes stable expressing human humVEGF-Receptor 2); assay: BaF3-cell proliferation in the presence of oxid-humVEGF26-104; format: cell-based
Method: FIG. 8. Proliferation data from BaF3/cell assay with humVEGF26-104 at various concentration (0.01-20 ng/mL), either in the absence and presence of humVEGF1-165. Level of proliferation observed at humVEGF1-165=1.2 ng/mL was set by default to 100%, other proliferation levels were expressed as % of default.
The cells that are used in the assay are murine pre-B lymphocytes stable expressing human (h) humVEGF-Receptor 2 (Makinen et al., 2001). These recombinant cells survive/proliferate only in the presence of IL-3 (natural cytokine required for the survival of the parental cells) or humVEGF. […]
Two days later, cell proliferation was measured by adding WST-1 (Roche #1644807). […]
The WST-1 assay is based on the measurement of the mitochondrial succinate dehydrogenase activity. […] A tetrazolium salt (WST-1) is used as substrate since it generates a soluble dark metabolic (formazon) through the action of the enzyme, which can then be quantified by measuring the absorbance (450 nm) in an ELISA reader. The higher the absorbance measured in the assay, the stronger the proliferation. Absorbance is positively correlated with proliferation. […]
In order to check whether oxid-humVEGF26-104, the truncated form of humVEGF1-165, is also able to induce BaF3-cell proliferation, we measured cell proliferation in the presence of varying amounts of oxid-humVEGF26-104 (0.01-20 ng/mL). […]

[5] = Immunization study in Wistar rats with oxid-ratVEGF26-104 and oxid-humVEGF26-104; format: in vivo; conditions: 250 micrograms, CoVaccine, days 0, 14, 28, 42; bled day 56
From the text: This example describes the results of an immunization study in male Whistar rats with both oxid-hum-VEGF26-104 and oxid-ratVEGF26-104 with an intact cystine-knot fold (oxid-form). […] The use of truncated VEGF as described in this patent can thus be used to bypass immune tolerance to “self proteins,” like, for example, the full-length homodimeric VEGF protein in this particular case.
A total of four Wistar rats (2×2) were immunized on day 0 with 250 micrograms each of either oxid-ratVEGF26-104 (two rats) or oxid-humVEGF26-104 (two rats) using CoVaccine as adjuvant, followed by booster inoculations at day 14, 28, and 42. The rats were finally bled at day 56, and the sera were analyzed for antibody titers against ratVEGF1-165, humVEGF1-165, oxid-ratVEGF26-104, and oxid-humVEGF26-104.

[6] = test system: humTGFB2trunc-1, humTGFB2trunc-2, humVEGFtrunc; assay: ELISA binding of 9wpv-rat sera to humTGFB2trunc-1, humTGFB2trunc-2 and humVEGFtrunc; design: species or system human
From the text: (§1) FIG. 21. (Panel A) Antibody titers in ELISA for 9wpv-rat sera (1 and 2+pre-immune sera) that were elicited via immunization with oxid-humTGFB215-111/Δ49-77-humVEGF62-67. Titers were defined as the −10 log [conc] at which the OD in ELISA is equal to 4× the background signal. (Panel B) Antibody binding in ELISA of 9wpv-rat sera to surface-immobilized 1) humTGFB2trunc-1 (with VEGF b2-loop), 2) humTGFB2trunc-2 (with sequence PGGSPA replacing native humTGF-B2 b2-loop), and 3) humVEGFtrunc.
(§2) Each animal received four inoculations (0, 2, 4, and 7.5 wks) with 2×450+2×130 microgram of oxid-humTGFB215-111/Δ49-77-humVEGF62-67.

[7] = target: T3, full-length TGF-B2 (Homo sapiens, UniProt P61812); assay: ELISA titers of rat antisera to full-length TGF-B2 after immunization with the chimeric peptide; format: binding
T3 sequence (P61812 303-414 limits assumed): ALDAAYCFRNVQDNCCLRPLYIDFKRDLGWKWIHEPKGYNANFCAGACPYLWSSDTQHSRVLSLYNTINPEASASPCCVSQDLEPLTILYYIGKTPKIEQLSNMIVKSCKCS
From the text: as §1, §2

With “(cyclic) peptide-mimic derived from the beta3-loop of humVEGF: backbone-cyclized peptide covering only the β5-turn-β6 loop of humVEGF (humVEGF74-98) (SNITMQIMRIKPHQGQHIGEMSFLQ; cyclised or stapled) [reference compound]” as the molecule, how does the “fold less active in binding to Avastin™” value [1] read?
The value was > 10,000 fold.

For “Avastin: humanized anti-humVEGF monoclonal antibody (Genentech)”, which “titer endblood (mAb, as concentration)” value [2] is on record?
Its value is under 1000 ng/mL.

B1: oxid-humVEGF26-104: truncated human VEGF residues 26-104, N-acetylated, C-amidated, cystine-knot folded (SEQ ID NO:27) (peptide)
chain: CHPIETLVDIFQEYPDEIEYIFKPSAVPLMRCGGACNDEGLECVPTEESNITMQIMRIKPHQGQHIGEMSFLQHNKCEC
modifications: N-acetyl, C-amide, cystine-knot folded; VEGF26-104
For B1, which “difference in affinity (as compared to humVEGF1-165) to Avastin™” value ([1]; 10 ng/mL Avastin) is on record?
The value was “less than five”.

What about the “antibody generation via immunization (not conjugated to a carrier protein)” value [3] of the same molecule?
The value was “high levels of antibodies were successfully generated”.

What about the “effect on the proliferating ability of humVEGF1-165” value ([4]; 0.01-20 ng/mL in the presence of humVEGF1-165=1.2 ng/mL) of the same molecule?
The value was “nor any affect on the proliferating ability of humVEGF1-165”.

What about the “activity in BaF3-cell proliferation” value ([4]; 0.01-20 ng/mL, absence of humVEGF1-165) of the same molecule?
Its value is “no activity”.

B2: oxid-ratVEGF26-104: truncated rat VEGF residues 26-104, acetylated and amidated, cystine-knot folded (SEQ ID NO:30) (peptide)
chain: CRPIETLVDIFQEYPDEIEYIFKPSAVPLMRCAGACNDEALECVPTSESNVTMQIMRIKPHQSQHIGEMSFLQHSRCEC
modifications: N-acetyl, C-amide, cystine-knot folded; ratVEGF26-104
For B2, which “immunogenicity in rats compared to oxid-humVEGF26-104” value [5] is on record?
The value was “equally immunogenic and potent as compared to oxid-humVEGF26-104”.

B3: oxid-humTGFB215-111/Δ49-77-humVEGF62-67: chimeric truncated human TGFB2 residues 15-111 with beta2-loop replaced by humVEGF 62-67 (SEQ ID NO:35) (peptide)
chain: CALRPLYIDFKRDLGWKWIHEPKGYNANFCAGACNDEGLECVSQDLEPLTILYYIGKTPKIEQLSNMIVKSCKC
modifications: oxidized; humTGFB2-humVEGF
What does the source list for B3?
specificity of antibodies in the sera (TGFB2-part versus VEGF-part) [6]: majority of antibodies in the sera were directed towards the TGFB2-part of the peptide; titer in ELISA to full-length TGF-B2, pre-immune sera ([7]; pre-immune sera of the two rats): ≤ 2.1; cross-reactivity of elicited antibodies with native humTGF-B2 ([7]; rat antisera): fully cross-reactive with the native protein humTGF-B2; titer in ELISA to full-length TGF-B2, nine weeks post vaccination antisera ([7]; two rats, inoculations at 0, 2, 4, 7.5 wks, titer = -10log[conc] at which OD = 4x background): 3.8 and 4.1
